Assay results: publication PMC3204175

Target: CALM_(2091)AF10 (human) (UniProt Q13492)
Test: FRET or BRET

average FRET efficiency: 13% | mean donor photobleaching decay constant (CFP with YFP; CFP alone 0.72): 0.5
Substance: CALM_(2091)AF10 (from UniProt Q13492 1-648)
